Experimental data taken from patent US8637043B2, “Compositions useful as ligands for the formyl peptide receptor like 1 receptor and methods of use thereof” (Chemocentryx, Inc., priority 2001, dated 2014).

Test system: pariental L1.2 cells
Assay: Migration of parental L1.2 cells
Type: cell-based, murine
Protocol: Migration assays were performed on monocytes and neutrophils. Human monocytes and neutrophils (prepared as in Exampe 2) were harvested and resuspended in chemotaxis medium (CM). The CM consisted of Hank's buffered salt solution (Gibco, Mass.) containing CaCl2 (1 mM) and MgSO4 (1 mM) with added 0.1% BSA (Sigma, St. Louis, Mo.). The assays were performed in 96-well ChemoTx® microplates (Neuroprobe, Mass.). Leukotactin, MlP-1α and chemokines (CKβ8(1-99), CKβ8(25-99), CKβ8-1(1-116) or CKβ8-1(25-116), prepared as in Example 1) were added to the lower wells (final volume 29 μL), and 20 μL of cell suspension (5×10^6 cells/mL for monocytes; 2.5×10^6 cells/mL for neutrophils) added to the polycarbonate filters (5 μm pore size for monocytes; 3 μm pore size for neutrophils). After incubation for 90 min (37° C., 100% humidity, 5% CO2), cells were removed from the upper surface of the filter by scraping. Cells that migrated into the lower chamber were quantified using the Quant cell proliferation assay kit (Molecular Probes, Oreg.).
The ability of CKβ8-1 (25-116) to elicit the migration of the FPRL1 expressing cells was examined. Test conditions were as in Example 5.

B1: CKβ8-1(25-116): novel NH2-terminal truncated form of CKβ8-1, SEQ ID NO: 16, human recombinant chemokine (protein, listed as Homo sapiens)
chain: MLWRRKIGPQMTLSHAAGFHATSADCCISYTPRSIPCSLLESYFETNSECSKPGVIFLTKKGRRFCANPSDKQVQVCMRMLKLDTRIKTRKN
With B1 the “migration of parental L1.2 cells” value was “did not migrate”.
